The results in this text go back to US20260092093A1 (TJ BIOPHARMA SHANGHAI, published 2026).

The target of assay [1] is T1, hIL-18Rα ECD-Fc fusion protein (human, UniProt Q13478 22-329).
T1 construct: extracellular domain; captured on Protein A sensor
T1 sequence (looked up): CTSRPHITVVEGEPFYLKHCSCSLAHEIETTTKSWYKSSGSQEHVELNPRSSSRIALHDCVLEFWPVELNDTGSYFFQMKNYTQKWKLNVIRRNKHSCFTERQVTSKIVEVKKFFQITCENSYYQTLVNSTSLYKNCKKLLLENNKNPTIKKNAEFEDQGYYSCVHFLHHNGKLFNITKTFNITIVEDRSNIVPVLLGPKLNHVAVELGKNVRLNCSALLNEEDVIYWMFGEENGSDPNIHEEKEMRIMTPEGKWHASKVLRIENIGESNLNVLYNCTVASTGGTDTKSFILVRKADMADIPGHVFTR
In words: BLI (Octet RED96), hIL-18Rα ECD-Fc on Protein A sensor. The procedure:
The affinities of IL-18 variant polypeptides for hIL-18Rα were assessed by Biolayer Interferometry (BLI) on Octet RED96 using Protein A sensor coated with hIL-18Rα ECD-Fc fusion protein, and WT hIL-18 was used as a control.

Assay [2] deals with T2, recombinant hIL-18Rα extracellular domain (human, UniProt Q13478 22-329, biotin label (selection) or fluorescent probe (single-clone FACS), sites not given).
T2 construct: extracellular domain; also called hIL-18Rα ECD; hIL-18Rα-ECD
T2 sequence (looked up): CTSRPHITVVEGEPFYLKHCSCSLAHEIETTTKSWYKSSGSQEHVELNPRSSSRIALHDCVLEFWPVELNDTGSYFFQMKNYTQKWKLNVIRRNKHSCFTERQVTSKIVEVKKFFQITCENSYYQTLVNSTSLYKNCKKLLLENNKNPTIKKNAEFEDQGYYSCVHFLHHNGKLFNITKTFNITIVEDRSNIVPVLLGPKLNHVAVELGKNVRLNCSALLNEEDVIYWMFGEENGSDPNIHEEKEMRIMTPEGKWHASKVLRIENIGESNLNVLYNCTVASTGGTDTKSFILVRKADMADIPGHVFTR
In words: single-clone FACS, yeast display, 10 nM labelled hIL-18Rα ECD. Summed up: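 Yeast clones displaying IL-18 variants (screening rounds 4 and 5), at equal density, incubated with 10 nM fluorescently labelled hIL-18Rα ECD, then washed. Fraction of fluorescence-positive binding cells per clone measured by flow cytometry.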

B1: IL-18 variant polypeptide M2 (ligand)
chain: YFSKLKSKLSVIRNLNDQVLFIDQGNRPLFEDMTDSDCRDNAPRTIFIISMYKWSPDRGMAVTISVKCEKISTLSCENKIISFKEMNPPDGIKDTKSDIIFFQTSVPGHDNKMQFESSSYEGYFLACEKERDLFKLILKKEDELGDRSIMFTVQNED
As to B1, in assay [1], the equilibrium dissociation constant (Kd) was 12200 nM, the “Response (nm)” value was 0.0184 nm, the dissociation rate constant (koff) was found to be 0.0499 s⁻¹ and the on-rate constant (kon) turned out to be 4090 M⁻¹ s⁻¹. Also, the “% of fluorescence positive cells” value in assay [2] was 91.6%.

B2: IL-18 variant polypeptide M9 (ligand)
chain: YFPKLRSKLSVIRNLNDQVLFIDQGNRPLFEDMTDSDCRDNAPRTIFIISMYKWSRARGMAVTISVKCEKISTLSCENKIISFKEMNPPDSIKDTKSDIIFFQSSVPGHDNKMQFESSSYEGYFLACEKERDLFKLILKKEDELGDRSIMFTVQNED
Take B2: in assay [1], the Kd amounted to 4.88 nM, the “Response (nm)” value was under 0.02 nm, the off-rate constant (koff) came to 0.0108 s⁻¹ and the kon is 2.21e+06 M⁻¹ s⁻¹. In assay [2], the “% of fluorescence positive cells” value worked out at 36.1%.

B3: IL-18 variant polypeptide M11 (ligand)
chain: YFPKLRSKLSVIRNLNDQVLFIDQGNRPLFEDMTDSDCRDNAPRTIFIISMYKSSRNRGMAVTISVKCEKISTLSCENKIISFKEMNPPDGIKDTKSDIIFFQTSVPGHDNKMQFESSSYEGYFLACEKERDLFKLILKKEDELGDRSIMFTVQNED
Regarding B3, in assay [1], the affinity, expressed as Kd, was 68.2 nM; the “Response (nm)” value is 0.08 nm; the koff worked out at 0.0189 s⁻¹; the on-rate (kon) came to 277000 M⁻¹ s⁻¹. The “% of fluorescence positive cells” value in assay [2] stood at 83.6%.

B4: IL-18 variant polypeptide M17 (ligand)
chain: YFPKLRSKLSVIRNLNDQVLFIDQGNRPLFEDMTDSDCRDNAPRTIFIISMYKLSTARGMAVTISVKCEKISTLSCENKIISFKEMNPPDGIKDTKSDIIFFQRSVPGHDNKMQFESSSYEGYFLACEKERDLFKLILKKEDELGDRSIMFTVQNED
For B4, in assay [1], binding was put at a Kd of 67.7 nM, the “Response (nm)” value turned out to be 0.0784 nm, the koff worked out at 0.0231 s⁻¹ and the kon came out at 340000 M⁻¹ s⁻¹. Besides, the “% of fluorescence positive cells” value in assay [2] is 87.1%.

B5: IL-18 variant polypeptide M7 (ligand)
chain: YFPKLRSKLSVIRNLNDQVLFIDQGNRPLFEDMTDSDCRDNAPRTIFIISMYKHSTARGMAVTISVKCEKISTLSCENKIISFKEMNPPDAIKDTKSDIIFFQRSVPGHDNKMQFESSSYEGYFLACEKERDLFKLILKKEDELGDRSIMFTVQNED
As to B5, in assay [1], binding was put at a Kd of 11.9 nM, the “Response (nm)” value stood at 0.0222 nm, the dissociation rate constant (koff) is 0.0271 s⁻¹ and the kon was found to be 2.27e+06 M⁻¹ s⁻¹. Besides, the “% of fluorescence positive cells” value in assay [2] was 93.8%.

B6: IL-18 variant polypeptide M4 (ligand)
chain: YFPKLKSKLSVIRNLNDQVLFIDQGNRPLFEDMTDSDCRDNAPRTIFIISMYKWSGVRGMAVTISVKCEKISTLSCENKIISFKEMNPPDVIKDTKSDIIFFQFSVPGHDNKMQFESSSYEGYFLACEKERDLFKLILKKEDELGDRSIMFTVQNED
B6: in assay [1], the Kd was 39.1 nM, the “Response (nm)” value is 0.0326 nm, the koff was determined as 0.017 s⁻¹ and the on-rate (kon) came to 436000 M⁻¹ s⁻¹. Further, the “% of fluorescence positive cells” value in assay [2] was determined as 44.9%.

B7: IL-18 variant polypeptide M13 (ligand)
chain: YFPKLKSKLSVIRNLNDQVLFIDQGNRPLFEDMTDSDCRDNAPRTIFIISMYKQSIWRGMAVTISVKCEKISTLSCENKIISFKEMNPPDNIKDTKSDIIFFQRSVPGHDNKMQFESSSYEGYFLACEKERDLFKLILKKEDELGDRSIMFTVQNED
Regarding B7, in assay [1], binding was characterised by a dissociation constant (Kd) of 11.6 nM, the “Response (nm)” value came out at 0.31 nm, the off-rate constant (koff) was 0.0038 s⁻¹ and the kon stood at 327000 M⁻¹ s⁻¹. In addition, the “% of fluorescence positive cells” value in assay [2] is 96.4%.

B8: IL-18 variant polypeptide M10 (ligand)
chain: YFPKLRSKLSVIRNLNDQVLFIDQGNRPLFEDMTDSDCRDNAPRTIFIISMYKQSLWRGMAVTISVKCEKISTLSCENKIISFKEMNPPDSIKDTKSDIIFFQRSVPGHDNKMQFESSSYEGYFLACEKERDLFKLILKKEDELGDRSIMFTVQNED
For B8, in assay [1], the affinity, expressed as Kd, was 48.6 nM; the “Response (nm)” value came out at 0.0788 nm; the koff was 0.0235 s⁻¹; the kon stood at 483000 M⁻¹ s⁻¹. Also, the “% of fluorescence positive cells” value in assay [2] is 68.1%.

B9: IL-18 variant polypeptide M14 (ligand)
chain: YFNKLKSKLSVIRNLNDQVLFIDQGNRPLFEDMTDSDCRDNAPRTIFIISMYKPSSSRGMAVTISVKCEKISTLSCENKIISFKEMNPPDRIKDTKSDIIFFQASVPGHDNKMQFESSSYEGYFLACEKERDLFKLILKKEDELGDRSIMFTVQNED
Take B9: in assay [1], the Kd amounted to 23.6 nM, the “Response (nm)” value turned out to be 0.218 nm, the koff was found to be 0.00588 s⁻¹ and the on-rate constant (kon) stood at 250000 M⁻¹ s⁻¹. Besides, the “% of fluorescence positive cells” value in assay [2] was 88.3%.

B10: IL-18 variant polypeptide M5 (ligand)
chain: YFEKLTSKLSVIRNLNDQVLFIDQGNRPLFEDMTDSDCRDNAPRTIFIISMYKWSPWRGMAVTISVKCEKISTLSCENKIISFKEMNPPDVIKDTKSDIIFFQTSVPGHDNKMQFESSSYEGYFLACEKERDLFKLILKKEDELGDRSIMFTVQKED
Turning to B10, in assay [1], binding was characterised by a dissociation constant (Kd) of 38.8 nM, the “Response (nm)” value is 0.0468 nm, the koff worked out at 0.0149 s⁻¹ and the association rate constant (kon) came to 383000 M⁻¹ s⁻¹. For the same molecule, the “% of fluorescence positive cells” value in assay [2] was 96%.

B11: IL-18 variant polypeptide M15 (ligand)
chain: YFPKLRSKLSVIRNLNDQVLFIDQGNRPLFEDMTDSDCRDNAPRTIFIISMYKSSYTRGMAVTISVKCEKISTLSCENKIISFKEMNPPDGIKDTKSDIIFFQRSVPGHDNKMQFESSSYEGYFLACEKERDLFKLILKKEDELGDRSIMFTVQNED
Turning to B11, in assay [1], the Kd is 36.7 nM, the “Response (nm)” value is 0.122 nm, the koff was found to be 0.0183 s⁻¹ and the kon came out at 499000 M⁻¹ s⁻¹. The “% of fluorescence positive cells” value in assay [2] is 95%.

B12: IL-18 variant polypeptide M3 (ligand)
chain: YFPKLKSKLSVIRNLNDQVLFIDQGNRPLFEDMTDSDCRDNAPRTIFIISMYKWSHVRGMAVTISVKCEKISTLSCENKIISFKEMNPPDAIKDTKSDIIFFQYSVPGHDNKMQFESSSYEGYFLACEKERDLFKLILKKEDELGDRSIMFTVQNED
For B12, in assay [1], the affinity, expressed as Kd, was 2140 nM; the “Response (nm)” value amounted to 0.057 nm; the koff is 0.0431 s⁻¹; the kon worked out at 20100 M⁻¹ s⁻¹. The “% of fluorescence positive cells” value in assay [2] stood at 93.3%.

B13: IL-18 variant polypeptide M12 (ligand)
chain: YFPKLKSKLSVIRNLNDQVLFIDQGNRPLFEDMTDSDCRDNAPRTIFIISMYKGSGARGMAVTISVKCEKISTLSCENKIISFKEMNPPDTIKDTKSDIIFFQRSVPGHDNKMQFESSSYEGYFLACEKERDLFKLILKKEDELGDRSIMFTVQNED
Turning to B13, in assay [1], the Kd came to 24.9 nM, the “Response (nm)” value was 0.186 nm, the koff was found to be 0.0107 s⁻¹ and the on-rate constant (kon) is 427000 M⁻¹ s⁻¹. For the same molecule, the “% of fluorescence positive cells” value in assay [2] amounted to 88.3%.

B14: IL-18 variant polypeptide M16 (ligand)
chain: YFPKLRSKLSVIRNLNDQVLFIDQGNRPLFEDMTDSDCRDNAPRTIFIISMYKSSRNRGMAVTISVKCEKISTLSCENKIISFKEMNPPDGIKDTKSDIIFFQSSVPGHDNKMQFESSSYEGYFLACEKERDLFKLILKKEDELGDRSIMFTVQNED
For B14, in assay [1], the dissociation constant (Kd) worked out at 42.6 nM, the “Response (nm)” value was 0.111 nm, the koff was found to be 0.0177 s⁻¹ and the kon was 415000 M⁻¹ s⁻¹. In addition, the “% of fluorescence positive cells” value in assay [2] came out at 88.5%.

The term Kd denotes the equilibrium constant for the complex coming apart. One may read the koff as the rate constant with which the complex falls apart. Low readings indicate slow dissociation, high ones fast dissociation. Usually kon stands for the second-order rate constant of association. Low readings indicate slower complex formation, high ones faster complex formation.
